The source of these data is the DeepSol protein solubility set.

This data set in a line: soluble on expression in E. coli; label from the status in PepcDB or PDB records.
For “MAHHHHHHMPQKPLFFIYFFFFQDTPDFGGVDTQTNNNNKKRGFTRDGRGKLAGGDAHSRRDRRMRLRGWGHTAFQTRLNGSRCWGSRGASSASQCVALRSASSSFSMSTSRSPFDAVYVINLNRRPDRWKFILRQLQRAGFREGEYERFTAVDGRAVDIQKAQACGLVSLLGILRLREEESRRIWGMDLNPAAVGCALSHVLLWATIAARRYHRVLVVEDDSLFPHDFQKKYDERMRHVPQDWELVYVSGLDTADQTSQLRVAEGVSRVPQMHRTTNCYVVTHHGARRLLELCLPMTYQLDTMMTMHAVSDPQSGVPHVTSPVCYTLQPPLVVQATRMGSDIQSSNGRDEQEEERARCRAAGWTTD”, the “soluble on expression in E. coli” value was “soluble”.

With “KRSNSIKRNPNAPVVRRGWLYKQDSTGMKLWKKRWFVLSDLCLFYYRDEKEEGILGSILLPSFQIALLTSEDHINRKYAFKAAHPNMRTYYFCTDTGKEMELWMKAMLDAALVQT”, the “soluble on expression in E. coli” value is “soluble”. The entry for “MSLGGQEKEHLTMRAEEWHLVSGAVSMRGRRPTDEDTMVVVAAIHSHRNIRIQALFDGHGGPNVAQFAANRLQSLFARQKGYSRRDLEKICHALDEELKKNNVRRGGSTGVIMVIEKVEKPEKVIVRGRQILKDPGLTPLKEHYRKQAGPAEEITLGTSETPFRLHVANVGDSRAMLVLEDEYYEMTKDHKPEDPEEKSRILRAGASVTDSEGTSVPRIDGSLALSRSFGDFSLKQGSGSTPDAVISTPDVRQFYAGYNDLLVLFCDGVTEPVASSWPQVAAYTREIFVQTGDVVKTAVALAEQAYSAGSQDNLSAVVTRLRPDPAEEGHHHHHH” is “soluble”; for “MEKLDGVANTLYVPLYGRIYVSKKFPEYFYDEMALKIEEKFTSGISKGSFEYTNMAYGARYYNMDKMIIKFIEEHKISNIILLGIGLETAYDRITQKCGLGEVNYYGIDLPEVIEIRKKYFGERKQETLIAGDMFEMEWKEQIDTSIPTLLIVSGVFQYFFEDKIIEFIKNLKKEFPYGELVFDTARKKTGLRFANWYIRRTGNLEALMHFYIEDSVDFSKKTDTILVEELTFFKDARELLRKKLNFITKLFMKIADSKRQALIIHLKWLEHHHHHH” it is “not soluble”; for “MEKYEEVLVSIRQIIRAIDLHSKKLSKESGLTAPQLILMRAINELDNVTIKQLSNHTNMSQATATTILDRLERNQLVERRRSVEDKRKVHAVLTEKGEEALRQAPTPLQEHFINRFQKLEEWEQTLLLSSVQRISTMMNAEDIDVAPLLEIGSITKPE” it is “not soluble”. Then “MKPAYPPLLLQMSPAYTPRPLKNLFTANQCWAHLIEEGGLRDIEVESVTKMLACGTSILGVKHYTCGNHSCPHVKYLCNTCSCRACPSCGKKATDQWIANQQHRLPECTWQHLVFTLPDTLWPLFFHNRHWLDALCRLAVDNLLYAGRRRGVEVGVFCAIHTYGRRLNWHPHIHVSVTLGGIDDAGVWKDLSFHPSALRRRWMWNVRQYLLSQWEHTTVPPENAHLQSENDWRHLVLNAGGQHWHIHLSKKTKNGKKTVNYLGRYLKKPPISGSRLAHYTSGATLSFTYLDHRTKTYQQETLSQTDMLRRVVQHIPEKHFRMIRYFGFLANRVCGRQLPRVYEAIRMERRGKAPKLYFAQMSKAFLHRDPFSCVLCGARMVYTAAIAGLTVQGLINNAQSIAQLRYVPA”, with “not soluble”.

With “MGSDKIHHHHHHMKLIESVPNFSEGRRKEVVEKIVAEAKKYDRVWVLDWSMDADHNRSVITLVGEPENLINALFDMTKKAAELIDLRNHTGQHPRMGAADVIPLVPLYNTTMEECVEYSKILGRRIGEELGIPVYLYEKSATRPERQNLADIRKGEFEGFFEKIKDPLWKPDFGPDRVHPTAGVTAVGAREFLIAFNVNLGTRDVKIAEKIARAIRFSSGGLRYVKAIGVDLKGRGVVQVSINITNHKKTPLYRVFELIKMEAERYGVPVLGSEIVGLFPLESLLKTVSYYLRTDLNAKKVIESNLLEILVRESEK”, the “soluble on expression in E. coli” value is recorded as “not soluble”. The entry for “MSPAPSRPFSVLRANDVLWLSLTAAEYDQSTYGSSTGPVYVSDSVTLVNVATGAQAVARSLDWTKVTLDGRPLSTIQQHSKTFFVLPLRGKLSFWEAGTTKAGYPYNYNTTASDQLLVENAAGHRVAISTYTTSLGAGPVSISAVAVLA” is “soluble”; for “MPCVQAQYSPSPPGSTYATQTYGSEYTTEIMNPDYAKLTMDLGSTGIMATATTSLPSFSTFMEGYPSSCELKPSCLYQMPPSGPRPLIKMEEGREHGYHHHHHHHHHHHHHHQQQQPSIPPPSGPEDEVLPSTSMYFKQSPPSTPTTPGFPPQAGALWDDELPSAPGCIAPGPLLDPQMKAVPPMAAAARFPIFFKPSPPHPPAPSPAGGHHLGYDPTAAAALSLPLGAAAAAGSQAAALEGHPYGLPLAKRTATLTFPPLGLTASPTASSLLGESPSLPSPPNRSSSSGEGTCAVCGDNAACQHYGVRTCEGCKGFFKRTVQKNAKYVCLANKNCPVDKRRRNRCQYCRFQKCLSVGMVKEVVRTDSLKGRRGRLPSKPKSPLQQEPSQPSPPSPPICMMNALVRALTDATPRDLDYSRYCPTDQATAGTDAEHVQQFYNLLTASIDVSRSWAEKIPGFTDLPKEDQTLLIESAFLELFVLRLSIRSNTAEDKFVFCNGLVLHRLQCLRGFGEWLDSIKDFSLNLQSLNLDIQALACLSALSMITERHGLKEPKRVEELCNKITSSLKDHQRKGQALEPSEPKVLRALVELRKICTQGLQRIFYLKLEDLVSPPSVIDKLFLDTLPF” it is “soluble”.

For the sequence “MSLNKLSNVTLSAEQEKLRERVLSFMRSNLSQYKSDWKHPAMFVIQGDAGTGKSVILNSLFNEIQKLSQFSPSSEDILHGTHNYLVVNHPEMLKLYIRISDSFKYISKSSLERPTSLINNLQKRKVMADVVIVDEAHLLATSKDAFKRFYGENHLKDLMSLCKVLVLVYDDKQALRMGSYWDEGSNNGATLKDFYNEIPPKSRDWYTLKQQFRVAAPQNVLNWIDQISVAGKEGHHHHHH”, the “soluble on expression in E. coli” value is on record as “not soluble”. In the case of “LSIPEDYQARLQPNRVEGSYPLVRMEFTGATVDAPLMSQISRKYNIDVSILSSDLDYAGGVKFGMMVAELFGNEQDDSAAIEYLREHNVKVEVLGYVL”, the “soluble on expression in E. coli” value is given as “soluble”.

Turning to “MSLAQTNPNSKGDQQKMINIAHRGASGHAPENTMAAFQKGFDMKVDYIEFDVHMTKDGELVLMHDLTVDRTTNGHGYVSDLTLDEIKQFDAGSWFHEDFVGEKVPTFEETLDVFRGKVGLLIELKSPERYPGMEEKVAEALKERKMDRSSNHKVIIQSFNHESMKKSKELLPHIPHGVLAGPSWANVTDEQLEEFSTYADYFNPNMTIVTPELVSRIHAVGMKIFPYTSRTQEQANRLFELKVDGIITDFPEHVYFHPVKNQEGHHHHHH”, the “soluble on expression in E. coli” value is reported as “not soluble”. Then “MGSDKIHHHHHHMHDVLAKGILSSNNGMNIYRGCTHGCIYCDARSLCYGMDHIFEDIEVKTNVVELLEDTLKRKRKKCMIGTGAMSDPYIHLEEKLQNTRRCLEIIDKYGFGLSILTKSNRILRDLDLLKSINNKAKCVVEMTLTTYDEELCKIIEPNVSTTKERFEVLKIMRDNKIPTVVWLSPILPYINDTEENIRGILDYCIEAEVKGIIVFGIGVTLRNGNREYYYKNLDKQFKGLKEKYIRQYGNSYEVVSKNHEKLMKIIKETCNKNNIICDIREVFNYMRTFEEKNNEVQIGFDI”, with “not soluble”. The entry for “MAKWGEGDPRWIVEERADATNVNNWHWTERDASNWSTEKLKTLFLAVRVENEEGKCEVTEVNKLDGEASINNRKGKLIFFYEWTIKLNWTGTSKSGVQYKGHVEIPNLSDENSVDEVEISVSLAKDEPDTNLVALMKEDGVKLLREAVGIYISTLKTEFTQGMILPTVNGESVDPVGQPALKTETCKAKSAPSKSQAKPVGVKIPTCKITLKETFLTSPEELYRVFTTQELVQAFTHAPAALEADRGGKFHMVDGNVTGEFTDLVPEKHIAMKWRFKSWPEGHFATITLTFIDKNGETELCMEGRGIPAPEEERTRQGWQRYYFEGIKQTFGYGARLF” is “soluble”.

In the case of “MIQDKEVTLEYVSSLDFWYCKRCKANIGGHRSSCSFCKNPREVTEAKQELITYPQPQKTSIPAPLEKQPNQPLRPADKEPEPRKREEGQESRLGHQKREAERYLPPSRREGPTFRRDRERESWSGETRQDGESKTIMLKRIYRSTPPEVIVEVLEPYVRLTTANVRIIKNRTGPMGHTYGFIDLDSHAEALRVVKILQNLDPPFSIDGKMVAVNLATGKRRNDSGDHSDHMHYYQGKKYFRDRRGGGRNSDWSSDTNRQGQQSSSDCYIYDSATGYYYDPLAGTYYDPNTQQEVYVPQDPGLPEEEEIKEKKPTSQGKSSSKKEMSKRDGKEKKDRGVTRFQENASEGKAPAEDVFKKPLPPTVKKEESPPPPKVVNPLIGLLGEYGGDSDYEEEEEEEQTPPPQPRTAQPQKREEQTKKENEEDKLTDWNKLACLLCRRQFPNKEVLIKHQQLSDLHKQNLEIHRKIKQSEQELAYLERREREGKFKGRGNDRREKLQSFDSPERKRIKYSRETDSDRKLVDKEDIDTSSKGGCVQQATGWRKGTGLGYGHPGLASSEEAEGRMRGPSVGASGRTSKRQSNETYRDAVRRVMFARYKELD”, the “soluble on expression in E. coli” value is “not soluble”. The entry for “MSLSIPERKEFTKLYDVYDEITSKYYKDTNSTTMIDGAISGMVNSLDDPYSTFMSKKESSEFNDTISASFEGIGAEIQEKDGAIVIVSPIKNSPAEKAGLRPQDIITQVDGKSVKGDTATEATQKIRGEKGTKVTLTIQRSNEDKPFDVTITRDEIPIETVYKEMGSDKIAHVTISTFSETTYDELEKALKSLEKDGMKGLVLDLRGNPGGLLDQAVSISSLFVPDGKIVVQEQDKDGDKSAIKADSSSHGDYKVKVPTTMLIDGGSASASEILAAAAKESGGIKLVGTKSFGKGTVQTATTLSDDSTLKLTVAKWLTPNSEWIHEKGITPDVVVNMPDYATMTIPSSTKVYKNGDFGDDVKTIETLLKALDYNVGKVDGLYDTDTEYAVQRFQTANKLDVTGIMTGVTTDKLVELTQKHLKETDPQLQKAKALVKEGHHHHHH” is “soluble”. The entry for “MKADHPEDIEDIKELIAQTENEQVEFKETTGQLERGMETLCAFLNGEGGTVLFGITDKGKIIGQEVADVTKRSIAEAINRLEPTANVHVFYIPLPDSSKKIIALHVENSRDNRPFCYKSRPYYRVESVTSAMPQAVYNQLLIIRDEAKYRWELFENPKLSLQDMDENEILKTVRLGIECGRLPENTGNNLSIILEKFGLLVNGVLNNAAAVLFANRELIEYPQCLLRLARFKGTDKMVFMDNQRVQGNLFQLLDSAMTFIFKHLSLSGTTEALEREEHLTIPYKAIREGIINSLCHRQFRTPGGSVGIAIYDDRVEIENPGTFPHGWDMERMKSEHCSEPRNPLIANVLYKRKLLENWGRGISLMTEECRKANLPEPEFKLANGFVILVFRYGTNNHTSTMQVPHKHHISTIQVQSLLNIMEYNTYSVKEMMELLELKNRSYFSKEYLKPAVETGVIEPIFPDQPKSPKQKYRLTEKGKALLEKRLEHHHHHH” is “soluble”; for “MGSDKIHHHHHHMKFYNRENELAELQRIQELSFEENSRLTVVTGRRRIGKTSLIMRAFEKTPTIYLFVGRKNEASLCREFITLVSQALDIYVPEEISTFKSLFRYIMEVATRQSFNLVIDEFQEFYNINKSIYSDIQDIWDQYRQKTHMNFVVSGSIYSLMEKIFHNEKEPLFGRADNIIKLSAFSLNVLKKIIKDYHPQYTNDDLLALYSFSGGVPKYVELFCDNRVLTVDGMIDFMVRDNSPFTDEGKNLLIEEFGKNYGTYFSILSAISGGYNTQTEIEALLGEKSLGGYLKRLIEDYNIVVRQRPVFSKEGSQTVRYGICDNFIHFWFNYFDRNRSLIEIKNFIGLRKLIKADYPTYSGKILEQYFKQKYAESYEFRLIGSWWEPKGNQNEIDIVAIYLDNKSAIVAEVKRQKKNFKPELFQKKVEHLENKVLAKYQINTVCLSLEDM” it is “not soluble”. The entry for “MLQPPFNIKVTNITLTTAVVTWQPPILPIEGILVTFGRKNDPSDETTVDLTSSITSLTLTNLEPNTTYEIRIVARNGQQYSPPVSTTFTTGSLEHHHHHH” is “soluble”.
